Measurements taken from patent US6485936 (HSP RESEARCH INSTITUTE, dated 2002).

T1: GST-HSF2N96C328 (human, UniProt Q03933 96-328)
T1 construct: Expressed in E. coli and immobilized on glutathione-Sepharose; also called HSF2N96C328 (GST fusion); not shown: glutathione S-transferase (GST) encoded by the pGEX-5X-1 vector (Pharmacia)
T1 sequence (looked up): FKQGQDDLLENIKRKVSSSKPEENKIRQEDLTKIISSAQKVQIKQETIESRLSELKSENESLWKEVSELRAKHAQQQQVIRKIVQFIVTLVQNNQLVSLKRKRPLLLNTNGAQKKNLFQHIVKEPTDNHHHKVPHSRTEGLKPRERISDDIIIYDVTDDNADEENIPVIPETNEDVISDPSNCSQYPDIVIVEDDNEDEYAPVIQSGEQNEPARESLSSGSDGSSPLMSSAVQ

B1: BP-C150 (deletion mutant of HSF2BP), in vitro translated, 35S-methionine-labeled (other)
chain: MGEAGAAEEACRHMGTKEEFVKVRKKDLERLTTEVMQIRDFLPRILNGEVLESFQKLKIVEKNLERKEQELEQLKMDCEHFKARLETVQADNIREKKEKLALRQQLNEAKQQLLQQAEYCTEMGAAACTLLWGVSSSEEVVKAILGGDKA
modifications: 35S-methionine label
notes: Vector pcDNA 3.1 His; tag residues are not described
B2: HSF2 binding protein (HSF2BP), in vitro translated, 35S-methionine-labeled (other)
chain: MGEAGAAEEACRHMGTKEEFVKVRKKDLERLTTEVMQIRDFLPRILNGEVLESFQKLKIVEKNLERKEQELEQLKMDCEHFKARLETVQADNIREKKEKLALRQQLNEAKQQLLQQAEYCTEMGAAACTLLWGVSSSEEVVKAILGGDKALKFFSITGQTMESFVKSLDGDVQELDSDESQFVFALAGIVTNVAAIACGREFLVNSSRVLLDTILQLLGDLKPGQCTKLKVLMLMSLYNVSINLKGLKYISESPGFIPLLWWLLSDPDAEVCLHVLRLVQSVVLEPEVFSKSASEFRSSLPLQRILAMSKSRNPRLQTAAQELLEDLRTLEHNV
modifications: 35S-methionine label
notes: In vitro translated (TNT kit) from HSF2BP cDNA in pcDNA 3.1 His A, B or C; also called human HSF2BP; intact HSF2BP
B3: BP-C73 (deletion mutant of HSF2BP), in vitro translated, 35S-methionine-labeled (other)
chain: MGEAGAAEEACRHMGTKEEFVKVRKKDLERLTTEVMQIRDFLPRILNGEVLESFQKLKIVEKNLERKEQELEQ
modifications: 35S-methionine label
B4: BP-N115 (deletion mutant of HSF2BP), in vitro translated, 35S-methionine-labeled (other)
chain: QQAEYCTEMGAAACTLLWGVSSSEEVVKAILGGDKALKFFSITGQTMESFVKSLDGDVQELDSDESQFVFALAGIVTNVAAIACGREFLVNSSRVLLDTILQLLGDLKPGQCTKLKVLMLMSLYNVSINLKGLKYISESPGFIPLLWWLLSDPDAEVCLHVLRLVQSVVLEPEVFSKSASEFRSSLPLQRILAMSKSRNPRLQTAAQELLEDLRTLEHNV
modifications: 35S-methionine label
B5: BP-C115 (deletion mutant of HSF2BP), in vitro translated, 35S-methionine-labeled (other)
chain: MGEAGAAEEACRHMGTKEEFVKVRKKDLERLTTEVMQIRDFLPRILNGEVLESFQKLKIVEKNLERKEQELEQLKMDCEHFKARLETVQADNIREKKEKLALRQQLNEAKQQLLQ
modifications: 35S-methionine label

Key:
GST-HSF2N96C328 [1] = biological target: T1, GST-HSF2N96C328; test: GST pull-down with GST-HSF2N96C328; 35S-labeled in vitro translated protein
GST-HSF2N96C328 [2] = biological target: T1, GST-HSF2N96C328; test: GST pull-down, 35S-labeled in vitro translated deletion mutant

Binder	proportion bound (% of the level of input) (GST-HSF2N96C328 [1])	binding result (GST-HSF2N96C328 [2])
B1	22.3 % of the level of input	
B2	12.9 % of the level of input	
B3		no binding
B4		no binding
B5	5.7 % of the level of input	
